Series [1] addresses T1, IL-17 (IL-17A) (Homo sapiens, UniProt Q16552 Q16552:24-155).
T1 sequence: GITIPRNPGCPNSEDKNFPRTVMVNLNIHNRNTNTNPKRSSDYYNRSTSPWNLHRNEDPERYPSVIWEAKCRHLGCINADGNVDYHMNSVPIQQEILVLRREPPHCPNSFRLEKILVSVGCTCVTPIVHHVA
The experiment in a line: SPR. The conditions noted are these: tags: Peprotech; chain copies: 2.

Series [2] has as its target T1, IL-17 (IL-17A). The experiment in a line: SPR; solution A, tRNA. The conditions noted are these: tags: Peprotech; chain copies: 2. As to the method: (§1) The binding activities for IL-17 of the nucleic acids shown by SEQ ID NOS:1-6 and 29-36 were evaluated by the surface plasmon resonance method. The measurements were taken using BIAcore 2000. The SA chip was used as the sensor chip, which had streptavidin immobilized thereon. Bound thereto was about 600 RU of a 16-nucleotide Poly dT with biotin bound to the 5′ end thereof. […] 20 μl, of human IL-17 for analyte, prepared at 0.5 was injected, with the addition of 0.1 mg/mL tRNA to lessen nonspecific adsorption. Solution A was used as a running buffer. […] Here, 30N refers to the nucleic acid pool used for the first round of SELEX, comprising a 30-nucleotide random sequence. As an example, a sensorgram showing a status of the binding of the aptamer shown by SEQ ID NO:1 (Apt1) and human IL-17 is shown in FIG. 7. From the above, it was shown that the nucleic acids shown by SEQ ID NOS:1-6 and 29-36 are aptamers that bind to IL-17.
In general terms: SPR reads the build-up and loss of mass on a sensor chip optically.

The target in another series is T2, IL-17F (Homo sapiens, UniProt Q96PD4 Q96PD4:31-163).
T2 sequence: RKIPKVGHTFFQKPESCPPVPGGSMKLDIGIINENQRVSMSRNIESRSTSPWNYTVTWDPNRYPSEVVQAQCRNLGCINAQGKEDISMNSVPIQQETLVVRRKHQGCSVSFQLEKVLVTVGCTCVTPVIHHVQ
The experiment in a line: SPR; tRNA added. Particulars: tags: R&D Systems 1335-INS/CF; chain copies: 2. On the procedure:
as §1
Whether the IL-17 aptamers shown by SEQ ID NOS:1-6 and 29-36 bind to IL-17F, which belongs to the same family, was determined by the surface plasmon resonance method. The amino acid sequence homology between IL-17 and IL-17F is 50%. The experiment was performed using IL-17F produced by R&D Company (1335-INS/CF), while in a state wherein tRNA was added to lessen nonspecific adsorption as described above.

Series [3] concerns the target T1, IL-17 (IL-17A). The experiment in a line: SPR; 3' A16-tailed RNA on dT16 SA chip; solution A pH 7.6, Ca/Mg, 0.1 mg/mL tRNA. Particulars: tags: Peprotech; chain copies: 2. As to the method:
as §1

The target in series [4] is T1, IL-17 (IL-17A). Description: SPR; same as Example 1. The conditions noted are these: tags: Peprotech; chain copies: 2.

Regarding GGAUAGCGAAGUCAUUGAGCGCC (ssRNA, 2'-F pyrimidines; 2'-OMe at g19) [SEQ 40-4], the binding result with IL-17 (IL-17A) [1] is “binds”.

B1: SEQ 6 (ssRNA)
RNA: GGGAGCAGGAGAGAGGUCAGAUGGUGAUGCAUAGGAGUGGAGUCAGAUAUAGCCCUAUGCGUGCUAGUGUGA
modifications: 2'-F pyrimidines
As to B1, the binding result is reported as “binds” in the series with IL-17 (IL-17A) [2] and “no binding” with IL-17F.

B2: SEQ 1 (Apt1) (ssRNA)
RNA: GGGAGCAGGAGAGAGGUCAGAUGGGCAGCAGAGGAUAGCGAAGUCAUUGAGCGCCUAUGCGUGCUAGUGUGA
modifications: 2'-F pyrimidines
Consider B2, for which the binding result was “binds” with IL-17 (IL-17A) [3] and “no binding” with IL-17F.

B3: SEQ 32 (ssRNA)
RNA: GGGAGCAGGAGAGAGGUCAGAUGGGCAGCGGAGGAUGGCGAAGUCAUUGGGCGCCUAUGCGUGCUGGUGGAG
modifications: 2'-F pyrimidines
Regarding B3, the figures for the binding result with IL-17 (IL-17A) [2] and with IL-17F were “binds” and “no binding”, respectively.

B4: SEQ 2 (ssRNA)
RNA: GGGAGCAGGAGAGAGGUCAGAUGGUGCACAUGGGAUAGCGAAGUCAUUGAGCGCCUAUGCGUGCUAGUGUGA
modifications: 2'-F pyrimidines
With B4, the binding result is recorded as “binds” in the series with IL-17 (IL-17A) [2] and “no binding” with IL-17F.

B5: SEQ 5 (ssRNA)
RNA: GGGAGCAGGAGAGAGGUCAGAUGAGCGCCAUAGGGUAGAGAAGCCAUUGAUCACCUAUGCGUGCUAGUGUGA
modifications: 2'-F pyrimidines
On to B5, for which the figures for the binding result in the series with IL-17 (IL-17A) [2] and with IL-17F were “binds” and “no binding”, respectively.
As to GGAUAGCGAAGUCAUCGAGCGCC (ssRNA, 2'-F pyrimidines) [SEQ 45], in the series with IL-17 (IL-17A) [1], the binding result is on record as “binds”.
As for GCAGAGGAUAGCGAAGUCAUUGAGCGCCUAUGC (ssRNA, 2'-F pyrimidines) [SEQ 39], the binding result with IL-17 (IL-17A) [4] is given as “binds”.
Still for that read-out and setting: under GGAUAGCGAAGUCAUUGAGCGCC (ssRNA, 2'-F pyrimidines) [SEQ 40] stands “binds”.

B6: SEQ 31 (ssRNA)
RNA: GGGAGCAGGAGAGAGGUCAGAUGGAAGUGGAGUCAGAUAUAGCAAUAUUAUGACCUAUGCGUGCUAGUGUGA
modifications: 2'-F pyrimidines
For B6, the results for the binding result in the series with IL-17 (IL-17A) [2] and in the series with IL-17F were “binds” and “no binding”, respectively.

B7: SEQ 3 (ssRNA)
RNA: GGGAGCAGGAGAGAGGUCAGAUGUGUAAGGUCGGAAGUCAUGAACGGCCCGGACCUAUGCGUGCUAGUGUGA
modifications: 2'-F pyrimidines
Regarding B7, the binding result in the series with IL-17 (IL-17A) [2] is given as “binds”; in the series with IL-17F it was “no binding”.
Turning to GGAUAGCGAAGUCAUUGAGCGCC (ssRNA, 2'-F pyrimidines except c7; 2'-OMe at c7) [SEQ 40-3], the binding result with IL-17 (IL-17A) [1] is “binds”.

B8: SEQ 4 (ssRNA)
RNA: GGGAGCAGGAGAGAGGUCAGAUGCUAUAGCGAAGUCAUUGAGCGAGACAUAGGCCUAUGCGUGCUAGUGUGA
modifications: 2'-F pyrimidines
As for B8, the binding result in the series with IL-17 (IL-17A) [2] is listed as “binds”; with IL-17F, “no binding”.

B9: SEQ 29 (ssRNA)
RNA: GGGAGCAGGAGAGAGGUCAGAUGCGAUAGCGAAGUCAUUGAGCGCGUGUCCAACCUAUGCGUGCUAGUGUGA
modifications: 2'-F pyrimidines
On to B9, for which the binding result with IL-17 (IL-17A) [2] is recorded as “binds”; with IL-17F it was “no binding”.
Turning to GGUCUAGCCGGAGGAGUCAGUAAUCGGUAGACC (ssRNA, 2'-F pyrimidines) [SEQ 44], the binding result with IL-17 (IL-17A) [4] is “binds”.

B10: SEQ 37 (ssRNA)
RNA: CAGAUGGGCAGCAGAGGAUAGCGAAGUCAUUGAGCGCCUAUGCGUGCUAGUGUG
modifications: 2'-F pyrimidines
For the molecule B10, in the series with IL-17 (IL-17A) [4], the binding result is “binds”.

B11: SEQ 36 (ssRNA)
RNA: GGGAGCAGGAGAGAGGUCAGAUGUAUAGCGAAGUCAUUGAGCGACAAAGCCGGCCUAUGCGUGCUAGUGUGA
modifications: 2'-F pyrimidines
In the case of B11, the binding result with IL-17 (IL-17A) [2] is “binds”; in the series with IL-17F it was “no binding”.
On to GGAUAGCGAAGUCAUUGAGCGCC (ssRNA, 2'-F pyrimidines; 2'-OMe at a3) [SEQ 40-2], for which, in the series with IL-17 (IL-17A) [1], the binding result is “binds”.
As to GGAUAGCGAAGUCAUUGAGCACC (ssRNA, 2'-F pyrimidines) [SEQ 46], the binding result with IL-17 (IL-17A) [1] is on record as “binds”.
Consider GGAUAGCGAAGACAUUGAGCGCC (ssRNA, 2'-F pyrimidines; 2'-OMe at a12) [SEQ 48], for which the binding result with IL-17 (IL-17A) [1] is listed as “binds”.

B12: SEQ 30 (ssRNA)
RNA: GGGAGCAGGAGAGAGGUCAGAUGGUCUAGCCGGAGGAGUCAGUAAUCGGUAGACCUAUGCGUGCUAGUGUGA
modifications: 2'-F pyrimidines
For B12, the binding result with IL-17 (IL-17A) [2] is on record as “binds”; with IL-17F it was “no binding”.
GCAGCAGAGGAUAGCGAAGUCAUUGAGCGCCUAUGCGUGC (ssRNA, 2'-F pyrimidines) [SEQ 38]: in the series with IL-17 (IL-17A) [4], the binding result is on record as “binds”.

B13: SEQ 33 (ssRNA)
RNA: GGGAGCAGGAGAGAGGUCAGAUGGAGGAGCCAGUGAUCGUUGACCUCAAUGCACCUAUGCGUGCUAGUGUGA
modifications: 2'-F pyrimidines
As to B13, the binding result with IL-17 (IL-17A) [2] is “binds”; with IL-17F, “no binding”.

B14: SEQ 34 (ssRNA)
RNA: GGGAGCAGGAGAGAGGUCAGAUGGAGGAGACAGUGAUCGUUGACCCACCGGGUCCUAUGCGUGCUAGUGUGA
modifications: 2'-F pyrimidines
Turning to B14, the results for the binding result with IL-17 (IL-17A) [2] and with IL-17F were “binds” and “no binding”, respectively.

B15: SEQ 35 (ssRNA)
RNA: GGGAGCAGGAGAGAGGUCAGAUGGAGGAGGCAGUAAUCGUUGACUGGUAAACCCCUAUGCGUGCUAGUGUGA
modifications: 2'-F pyrimidines
Turning to B15, the values for the binding result with IL-17 (IL-17A) [2] and with IL-17F were “binds” and “no binding”, respectively.
As to GGGGAUAGCGAAGUCAUUGAGCGCCCC (ssRNA, 2'-F pyrimidines) [SEQ 41], in the series with IL-17 (IL-17A) [4], the binding result is given as “binds”.
GGAUAGAGAAGUCAUUGAGCGCC (ssRNA, 2'-F pyrimidines; 2'-OMe at a7) [SEQ 47]: the binding result in the series with IL-17 (IL-17A) [1] is “binds”.

B16: SEQ 43 (ssRNA)
RNA: AGAGGUCAGAUGGUCUAGCCGGAGGAGUCAGUAAUCGGUAGACCUAUGCGUG
modifications: 2'-F pyrimidines
For B16, in the series with IL-17 (IL-17A) [4], the binding result is given as “binds”.
Take GUGCACAUGGGAUAGCGAAGUCAUUGAGCGCCUAUGCGUGC (ssRNA, 2'-F pyrimidines) [SEQ 42]: the binding result in the series with IL-17 (IL-17A) [4] is given as “binds”.

The record behind these values is patent publication US20110177578, “APTAMER AGAINST IL-17 AND USE THEREOF” (The University of Tokyo, published 2011).
